Like-named read-outs stand apart in the source and are kept apart here. Marks after values point to notes of the source that are not given here.
Tests used:
[1] = Cofactor acceptance of Ta-ALDH variants (10 mM NAD); type: biochemical; settings: for 10 mM NAD (mU/mL): 1 mM D-glyceraldehyde, 50° C., pH 7; for 10 mM NAD (mU/mL) / relative to wt: 10 mM NAD; for relative to wt: normalized to the wildtype control value; for 10 mM NAD /2 mM NAD: ratio of activity at 10 mM NAD to 2 mM NAD
Description: (§1) Colonies of E. coli BL21 (DE3) containing Ta-ALDH library were transferred into 96-deepwell plates (Gainer BioOne) containing Zym5052 autoinduction medium (Protein Expression and Purification, 2005. 41(1): p. 207-234). Cultures were grown over night at 37° C., 1000 rpm. Cells were harvested by centrifugation at 5000 g at 2° C. for 2 min and lysed with B-Per® protein extraction reagent (Thermo Fisher Scentific, Rockford, USA). After incubation for 60 min at 50° C., insoluble cell debris and was removed by centrifugation at 5000 g at 20° C. for 30 min. Supernatants containing variants of TaALDH were tested for relative activity under standard conditions: 2 mM NAD, 1 mM D-glyceraldehyde in 50 mM HEPES (pH 7) at 50° C. After 20 min NADH formation was detected spectrophotometrically at 340 nm.
Change in cofactor acceptance of Ta-ALDH variants was tested under standard assay conditions but with 10 mM NAD. After 20 min NADH formation was detected and compared to relative activity.
(§2) The values “relative to wt” are the mU/mL values normalized to the wildtype control value.

[2] = Enzyme half-life at 50° C.
[3] = Ethanol tolerance of enzymes (E50); type: biochemical; settings: 60° C.
[4] = cited from earlier work
[5] = Isobutanol tolerance of enzymes (I50); type: biochemical
[6] = Determination of specific activity of purified TaALDH variants; type: biochemical; settings: purified enzyme, 1 mM D-Glyceraldehyde, 50° C., pH 7
From the text: The Ta-aldh gene was cloned in pCBR-Chis expression vector as described above. Mutations F34L, F34M, Y399C, S405C and S405N were inserted into Ta-aldh gene by Quickchange PCR as described above. For recombinant expression, E. coli BL21 (DE3) was transformed with pCBR-Ta-aldh-Chis, pCBR-Ta-aldh-f34I-s405c-Chis, pCBR-Ta-aldh-f34m-s405n-Chis or pCBR-Ta-aldh-f34m-y399c-s405n-Chis. Each of the four variants was produced using the following protocol:
Large amounts of a TaALDH-Variant were produced with fed-batch fermentation in a 40 L Biostat Cplus bioreactor (Sartorius Stedim, Goettingen, Germany). Defined media was supplemented with 30 μg/ml kanamycin. After inoculation cells were grown at 30° C. for 24 h and induced with 0.3 mM IPTG. Enzyme expression was performed at 30° C. for 3 h. One fermentation produced 300 g cells (wet weight). Cells were harvested and lysed with Basic-Z Cell Disruptor (Constant Systems, Northants, UK) in loading buffer (200 mM NaCl; 20 mM Imidazol; 2.5 mM MgCl2; 50 mM NaPi, pH 6.2). After heat treatment at 50° C. for 30 min, cell debris and protein aggregates were separated from soluble fraction by centrifugation at 30,000 g at 20° C. for 30 min (Sorvall RC6+, SS-34 rotor, Thermo Scientific).
Soluble fraction of His-tagged TaALDH-Variant was further purified by Ni-NTA chromatography using ÄKTA UPC-900 FPLC-system (GE Healthcare, Freiburg, Germany). Supernatant was loaded on HiTrap FF-column and washed with two column volumes of loading buffer. Highly purified and concentrated TaALDH was fractioned after elution in imidazole buffer (200 mM NaCl; 500 mM imidazol; 50 mM NaPi, pH 6.2). Buffer was changed to 20 mM (NH4)HCO3 with HiPrep 26/10 Desalting column and TaALDH was lyophilized with an Alpha 2-4 LD Plus freeze dryer (Martin Christ GmbH, Osterode am Harz, Germany).
TaALDH activity was determined spectrophotometrically at 50° C. by measuring the rate of cofactor reduction at 340 nm in flat bottom microtiter plates (Grainer BioOne) with a Fluorostar Omega Photometer (BMG Labtech GmbH, Ortenberg, Germany). One unit of activity was defined as reduction of 1 μmol of cofactor per minute.

[7] = Activity in solvents of Ta-ALDH variants (3 % isobutanol); type: biochemical; settings: for 3 % isobutanol, 2 mM NAD (mU/mL): 50° C., pH 7; for 3 % isobutanol, 2 mM NAD (mU/mL) / relative to wt: 3 % isobutanol, 2 mM NAD; for relative to wt: normalized to the wildtype control value; for Stab. rel to wt: stability in 3 % isobutanol relative to wildtype
Description: as §1
Activity in solvents of Ta-ALDH variants was tested under standard assay conditions containing additional solvent. After 20 min NADH formation was detected and compared to relative activity.
as §2

[8] = Screening of TaALDH variants, relative activity under standard conditions (2 mM NAD); type: biochemical; settings: for 2 mM NAD (mU/mL): 1 mM D-glyceraldehyde, 50° C., pH 7, lysate supernatant; for relative to wt: mU/mL values normalized to the wildtype control value
Description: as §1, §2

[9] = ALDH activity assay (glyceraldehyde to glycerate, NAD reduction); type: biochemical; settings: natural substrate
Description: (§3) (J. Mol. Catal. B-Enzym. 2009, 61, 30-35).
ALDH activity: ALDH activity was assayed at 50° C. by oxidizing D-glyceraldeyde to glycerate, whereby the coenzyme NAD is reduced to NADH. Assay mixture contained 50 mM HEPES (pH 7), 2.5 mM MgCl2, 2 mM NAD and 1 mM glyceraldehyde. (FEBS Lett. 2006, 580, 1198-1204)

[10] = KDGA activity in cleavage direction (HPLC); type: biochemical; settings: natural substrate
Description: as §3
KDGA activity: KDGA activity was followed in cleavage direction at 50° C. Reaction mixture contained 50 mM HEPES (pH 7), 0.1 mM thiamine pyrophosphate, 2.5 mM MgCl2, 20 U PDC and 10 mM KDG. KDG cleavage was followed by HPLC as described below.
Sample volume was 10 μl in each case.

[11] = Table 1, value with literature reference
[12] = Table 2, value with literature reference

B1: F34M Y399C S405N: Aldehyde Dehydrogenase ALDH (EC 1.2.1.3), Thermoplasma acidophilum, Mutations F34M+Y399C+S405N, Seq ID 10; the engineered ALDH of Tables 1 and 2 (protein)
chain: MDTKLYIDGQWVNSSSGKTVDKYSPVTGQVIGRMEAATRDDVDRAIDAAEDAFWAWNDLGSVERSKIIYRAKELIEKNRAELENIIMEENGKPVKEAKEEVDGVIDQIQYYAEWARKLNGEVVEGTSSHRKIFQYKVPYGIVVALTPWNFPAGMVARKLAPALLTGNTVVLKPSSDTPGSAEWIVRKFVEAGVPKGVLNFITGRGSEIGDYIVEHKKVNLITMTGSTATGQRIMQKASANMAKLILELGGKAPFMVWKDADMDNALKTLLWAKYWNAGQSCIAAERLYVHEDIYDTFMSRFVELSRKLALGDPKNADMGPLINKGALQATSEIVEEAKESGAKILFGGSQPSLSGPYRNGYFFLPTIIGNADQKSKIFQEEIFAPVIGARKISSVEEMCDLANDNKYGLASYLFTKDPNIIFEASERIRFGELYVNMPGPEASQGYHTGFRMTGQAGEGSKYGISEYLKLKNIYVDYSGKPLHINTVRDDLFQSGRPVLGSSHHHHHH
modifications: Aldehyde Dehydrogenase (EC 1.2.1.3), Thermoplasma acidophilum, variant F34M-Y399C-S405N Protein sequence including C-terminal His-Tag
10 mM NAD (mU/mL) [1]: 396.91 mU/mL
relative to wt [1]: 33.3
10 mM NAD /2 mM NAD [1]: 0.7
Half-life, 50° C. [2]: 12 h
E50: Ethanol concentration which causes loss of 50% activity [3]: 13 (60° C.) % v/v
T-Optimum [4, 11]: 63^[2] 50 °C
T-Optimum [4, 12]: 63^[2] ° C.
isobutanol concentration that already induces adverse effects on activity [5]: 3 % (v/v)
I50: Isobutanol concentration which causes loss of 50% activity ([5]; 50° C.): 3 (50° C.) % v/v
specific activity (U/mg) at 2 mM NAD [6]: 1.2 U/mg
3 % isobutanol, 2 mM NAD (mU/mL) [7]: 74.77 mU/mL
relative to wt [7]: 46.9
Stab. rel to wt [7]: 1
2 mM NAD (mU/mL) [8]: 130.81 mU/mL
relative to wt [8]: 45.3
Activity, 50° C. [9]: 1 U/mg

B2: wildtype (wt): Aldehyde Dehydrogenase ALDH (EC 1.2.1.3), Thermoplasma acidophilum, Seq ID 08, wildtype, non-optimized enzyme (protein)
chain: MDTKLYIDGQWVNSSSGKTVDKYSPVTGQVIGRFEAATRDDVDRAIDAAEDAFWAWNDLGSVERSKIIYRAKELIEKNRAELENIIMEENGKPVKEAKEEVDGVIDQIQYYAEWARKLNGEVVEGTSSHRKIFQYKVPYGIVVALTPWNFPAGMVARKLAPALLTGNTVVLKPSSDTPGSAEWIVRKFVEAGVPKGVLNFITGRGSEIGDYIVEHKKVNLITMTGSTATGQRIMQKASANMAKLILELGGKAPFMVWKDADMDNALKTLLWAKYWNAGQSCIAAERLYVHEDIYDTFMSRFVELSRKLALGDPKNADMGPLINKGALQATSEIVEEAKESGAKILFGGSQPSLSGPYRNGYFFLPTIIGNADQKSKIFQEEIFAPVIGARKISSVEEMYDLANDSKYGLASYLFTKDPNIIFEASERIRFGELYVNMPGPEASQGYHTGFRMTGQAGEGSKYGISEYLKLKNIYVDYSGKPLHINTVRDDLFQSGRPVLGSSHHHHHH
modifications: Aldehyde Dehydrogenase (EC 1.2.1.3), Thermoplasma acidophilum, wildtype enzyme Protein sequence including C-terminal His-Tag
10 mM NAD (mU/mL) [1]: 11.92 mU/mL
relative to wt [1]: 1.0
10 mM NAD /2 mM NAD [1]: 1
specific activity (U/mg) at 2 mM NAD [6]: 0.2 U/mg
3 % isobutanol, 2 mM NAD (mU/mL) [7]: 1.60 mU/mL
relative to wt [7]: 1.0
Stab. rel to wt [7]: 1.0
2 mM NAD (mU/mL) [8]: 2.89 mU/mL
relative to wt [8]: 1.0

B3: KDGA: 2-Keto-3-deoxygluconate aldolase KDGA (EC 4.1.2.14), Sulfolobus acidocaldaricus, Seq ID 06 (protein, listed as Sulfolobus acidocaldarius)
chain: MEIISPIITPFDKQGKVNVDALKTHAKNLLEKGIDAIFVNGTTGLGPALSKDEKRQNLNALYDVTHKLIFQVGSLNLNDVMELVKFSNEMDILGVSSHSPYYFPRLPEKFLAKYYEEIARISSHSLYIYNYPAATGYDIPPSILKSLPVKGIKDTNQDLAHSLEYKLNLPGVKVYNGSNTLIYYSLLSLDGVVASFTNFIPEVIVKQRDLIKQGKLDDALRLQELINRLADILRKYGSISAIYVLVNEFQGYDVGYPRPPIFPLTDEEALSLKREIEPLKRKIQELVH
Half-life, 50° C. [2]: >24 h
E50: Ethanol concentration which causes loss of 50% activity [3]: 15 (60° C.) % v/v
T-Optimum [4, 11]: 99^[1] 50 °C
T-Optimum [4, 12]: 99^[1] ° C.
I50: Isobutanol concentration which causes loss of 50% activity ([5]; 60° C., above solubility): >12 (60° C.)^b % v/v
activity in a two-phase isobutanol/water system ([5]; two-phase system forms at product titers above 12% (v/v)): remains completely active
Activity, 50° C. [10]: 4 U/mg

Reference: patent publication US20150218594A1, “CELL-FREE AND MINIMIZED METABOLIC REACTION CASCADES FOR THE PRODUCTION OF CHEMICALS” (CLARIANT PRODUKTE (DEUTSCHLAND) GMBH, priority 2012, published 2015)
